{"source": "patent US20230395187A1", "molecular_target": "SARS-CoV-2 spike protein, delta (SARS-CoV-2) (UniProt P0DTC2)", "assay": "virus-free Luminex binding assay, spike on beads"}
{"substance": "Imdevimab (RGN87) (antibody)", "values": [{"measurement": "EC50", "value": 0.17, "unit": "µg/mL"}]}
